Source: article PMC2576468, “The orthologue of the "acatalytic" mammalian ART4 in chicken is an arginine-specific mono-ADP-ribosyltransferase” (BMC Molecular Biology, 2008)

Substrate: NC(=O)c1ccc[n+]([C@@H]2O[C@H](COP(=O)([O-])OP(=O)(O)OC[C@H]3O[C@@H](n4cnc5c4ncn4ccnc54)[C@H](O)[C@@H]3O)[C@@H](O)[C@H]2O)c1
Assay: purified protein
Type: biochemical, Gallus gallus
Conditions: poly-L-arginine 1 mg/ml as acceptor, PBS pH 7.4, room temperature, glycosylated protein (no PNGase F)

B1: recombinant chicken ART4 (chART4) (Gallus gallus) (protein)
chain: SHLMMDMALHSFDDQYLGCREQMMEELERGDYFQKEIAANKNYSSLWKKAQEALLKSSVGLLREMHDSHATALMAYTMNSSLHSQLNWATSTAGRSPEQYRHNFSFKYFHFYLTTAIQIMKQWQSSKDNVRKRHCYRVHRGVKDLYIKATVGSIVRFGRFTSTSCLWNEAQKFGNETLFTVTTCLGAAMQGFSYYTSEKEVLIPPYEIFLVKNFFRTRRGNRLHLHSVGNYSKYHYQLLEASRIKNGGSTA
notes: N-glycosylated
In the case of B1, the Km is reported as 1.0 ± 0.18 µM.
